{"source": "paper PMC7228087", "about": "“Atco, a yeast mitochondrial complex of Atp9 and Cox6, is an assembly intermediate of the ATP synthase” (PLoS ONE, 2020)", "target": "T1, Cox6 with a tandem hemagglutinin plus protein C tag (S. cerevisiae, UniProt P00427 41-148)", "T1 construct": "Cox6, nuclear-encoded imported structural subunit of cytochrome oxidase, S. cerevisiae; also called Cox6-HAC; COX6-HAC; source: expressed in S. cerevisiae (cox6::URA3 trp1::pG71/ST9), in digitonin extract of mitochondria", "T1 sequence (looked up)": "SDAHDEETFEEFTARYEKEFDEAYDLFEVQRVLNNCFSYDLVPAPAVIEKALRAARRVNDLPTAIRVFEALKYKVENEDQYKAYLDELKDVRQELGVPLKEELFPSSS", "assay": "co-IP; as a1 but from an oxa1 null mutant expressing Cox6-HAC; radiolabel quantified as ratio to the OXA1 strain", "conditions": "partners not purified"}
{"binder": "Atp9 (natural protein, UniProt P61829 1-76, looked up, Atp9, mitochondrially encoded subunit of the ATP synthase ring, S. cerevisiae; wild type with native cysteine at residue 65; The introduction says that the ring of the ATP synthase has 10 copies of Atp9; In Atco the protein is oligomeric but not a ring; also called A9; Atp9 ring; source: submitochondrial particles for Western blots) MQLVLAAKYIGAGISTIGLLGAGIGIAIVFAALINGVSRNPSIKDTVFPMAILGFALSEATGLFCLMVSFLLLFGV", "values": [{"measurement": "ratio (Δoxa1/OXA1) of radiolabel in the PC eluate, SDS-PAGE", "value": 0.124, "unit": "ratio"}]}
